Reference: patent publication US20240117030A1 (Pfizer, published 2024)
Positions count from the first letter of the chain named.

B1: IL413TSLP-0008 (trispecific antibody, human IgG1, kappa, lambda)
heavy: EVQLVESGGGLVQPGGSLRLSCAASGFTFSSYAMSWVRQAPGKGLEWVASISSGDTTYYPDSVKGRFTISRDNAKNSLYLQMNSLRAEDTAVYYCARNEGYYFGLTLWGQGTLVTVSSASTKGPSVFPKAPSSKSTSGGTAALGCLVKDYFPEPVTVSWNSGALTSGVHTFPAVLQSSGLYSLSSSVTVPSSSLGTQTYICNVNHKPSNTKVDKKVEPKSCDKTHTCPPCPAPEAAGAPSVFLFPPKPKDTLMISRTPEVTCVVVDVSHEDPEVKFNWYVDGVEVHNAKTKPREEQYNSTYRVVSVLTVLHQDWLNGKEYKCKVSNKALPAPIEKTISKAKGQPREPQVCTLPPSREEMTKNQVSLWCLVKGFYPSDIAVEWESNGQPENNYKTTPPVLDSDGSFFLYSKLTVDKSRWQQGNVFSCSVMHEALHNHYTQKSLSLSPGK
chain 1: SYVLTQPPSVSVAPGQTARITCGGNNLGSKSVHWYQQKPGQAPVLVVYDDSDRPSWIPERFSGSNSGNTATLTISRGEAGDEADYYCQVWDSSSDHVVFGGGTKLTVLASTKGPSVFPLAPSSKSTSGGTAALGCLVKDYFPEPVTVSWNSGALTSGVHTFPAVLQSSGLYSLSSVVTVPSSSLGTQTYICNVNHKPSNTKVDKKVEPKSCGGGGSEVTLRESGPALVKPTQTLTLTCTFSGFSLSNFGEGLSWIRQPPGKGLEWLAHIYWDDDKRYNPSLKSRLTISKDTSRNQVVLTMTNMDPVDTATYYCARRETVFYWYFDVWGQGTTVTVSSASTKGPSVFPEAPSSKSTSGGTAALGCLVKDYFPEPVTVSWNSGALTSGVHTFPAVLQSSGLYSLGSVVTVPSSSLGTQTYICNVNHKPSNTKVDKKVEPKSCDKTHTCPPCPAPEAAGAPSVFLFPPKPKDTLMISRTPEVTCVVVDVSHEDPEVKFNWYVDGVEVHNAKTKPREEQYNSTYRVVSVLTVLHQDWLNGKEYKCKVSNKALPAPIEKTISKAKGQPREPQVYTLPPCREEMTKNQVSLSCAVKGFYPSDIAVEWESNGQPENNYKTTPPVLDSDGSFFLVSKLTVDKSRWQQGNVFSCSVMHEALHNHYTQKSLSLSPGK
light 1: DIQMTQSPSSLSASVGDRVTITCKASESVDHFGWSLVHWYQQKPGKAPKLLIYRASNLESGVPSRFSGSGSGTDFTLTISSLQPEDFATYYCQQSNEDPWTFGGGTKVEIKRTVAAPSVFIFPPSDEQLKSGTASVSCLLNNFYPREAKVQWKVDNALQSGNSQESVTEQDSKDSTYSLDSTLTLSKADYEKHKVYACEVTHQGLSSPVTKSFNRGEC
light 2: B1 light 1 with E27Q, H31E, F32D, W34D, L36Y, V37M, H38N, R54A, W100P, D180K
chain 2: QMQLVESGGGVVQPGRSLRLSCAASGFTFRTYGMHWVRQAPGKGLEWVAVIWYDGSNKHYADSVKGRFTITRDNSKNTLNLQMNSLRAEDTAVYYCARAPQWELVHEAFDIWGQGTMVTVSSGQPKAAPSVTLFPPSSEELQANKATLVCLISDFYPGAVTVAWKADSSPVKAGVETTTPSKQSNNKYAASSYLSLTPEQWKSHRSYSCQVTHEGSTVEKTVAPTECS
B2: IL413TSLP-0002 (trispecific antibody, human IgG1, kappa, lambda)
heavy: B1 heavy
chain 1: QMQLVESGGGVVQPGRSLRLSCAASGFTFRTYGMHWVRQAPGKGLEWVAVIWYDGSNKHYADSVKGRFTITRDNSKNTLNLQMNSLRAEDTAVYYCARAPQWELVHEAFDIWGQGTMVTVSSGQPKAAPSVTLFPPSSEELQANKATLVCLISDFYPGAVTVAWKADSSPVKAGVETTTPSKQSNNKYAASSYLSLTPEQWKSHRSYSCQVTHEGSTVEKTVAPTECSGGGGSEVTLRESGPALVKPTQTLTLTCTFSGFSLSNFGEGLSWIRQPPGKGLEWLAHIYWDDDKRYNPSLKSRLTISKDTSRNQVVLTMTNMDPVDTATYYCARRETVFYWYFDVWGQGTTVTVSSASTKGPSVFPEAPSSKSTSGGTAALGCLVKDYFPEPVTVSWNSGALTSGVHTFPAVLQSSGLYSLGSVVTVPSSSLGTQTYICNVNHKPSNTKVDKKVEPKSCDKTHTCPPCPAPEAAGAPSVFLFPPKPKDTLMISRTPEVTCVVVDVSHEDPEVKFNWYVDGVEVHNAKTKPREEQYNSTYRVVSVLTVLHQDWLNGKEYKCKVSNKALPAPIEKTISKAKGQPREPQVYTLPPCREEMTKNQVSLSCAVKGFYPSDIAVEWESNGQPENNYKTTPPVLDSDGSFFLVSKLTVDKSRWQQGNVFSCSVMHEALHNHYTQKSLSLSPGK
light 1: B1 light 1
light 2: B1 light 1 with E27Q, H31E, F32D, W34D, L36Y, V37M, H38N, R54A, W100P, D180K
chain 2: SYVLTQPPSVSVAPGQTARITCGGNNLGSKSVHWYQQKPGQAPVLVVYDDSDRPSWIPERFSGSNSGNTATLTISRGEAGDEADYYCQVWDSSSDHVVFGGGTKLTVLASTKGPSVFPLAPSSKSTSGGTAALGCLVKDYFPEPVTVSWNSGALTSGVHTFPAVLQSSGLYSLSSVVTVPSSSLGTQTYICNVNHKPSNTKVDKKVEPKSC
B3: IL413TSLP-0001 (trispecific antibody, human IgG1, kappa, lambda)
heavy: EVTLRESGPALVKPTQTLTLTCTFSGFSLSNFGEGLSWIRQPPGKGLEWLAHIYWDDDKRYNPSLKSRLTISKDTSRNQVVLTMTNMDPVDTATYYCARRETVFYWYFDVWGQGTTVTVSSASTKGPSVFPEAPSSKSTSGGTAALGCLVKDYFPEPVTVSWNSGALTSGVHTFPAVLQSSGLYSLGSVVTVPSSSLGTQTYICNVNHKPSNTKVDKKVEPKSCDKTHTCPPCPAPEAAGAPSVFLFPPKPKDTLMISRTPEVTCVVVDVSHEDPEVKFNWYVDGVEVHNAKTKPREEQYNSTYRVVSVLTVLHQDWLNGKEYKCKVSNKALPAPIEKTISKAKGQPREPQVYTLPPCREEMTKNQVSLSCAVKGFYPSDIAVEWESNGQPENNYKTTPPVLDSDGSFFLVSKLTVDKSRWQQGNVFSCSVMHEALHNHYTQKSLSLSPGK
chain 1: QMQLVESGGGVVQPGRSLRLSCAASGFTFRTYGMHWVRQAPGKGLEWVAVIWYDGSNKHYADSVKGRFTITRDNSKNTLNLQMNSLRAEDTAVYYCARAPQWELVHEAFDIWGQGTMVTVSSGQPKAAPSVTLFPPSSEELQANKATLVCLISDFYPGAVTVAWKADSSPVKAGVETTTPSKQSNNKYAASSYLSLTPEQWKSHRSYSCQVTHEGSTVEKTVAPTECSGGGGSEVQLVESGGGLVQPGGSLRLSCAASGFTFSSYAMSWVRQAPGKGLEWVASISSGDTTYYPDSVKGRFTISRDNAKNSLYLQMNSLRAEDTAVYYCARNEGYYFGLTLWGQGTLVTVSSASTKGPSVFPKAPSSKSTSGGTAALGCLVKDYFPEPVTVSWNSGALTSGVHTFPAVLQSSGLYSLSSSVTVPSSSLGTQTYICNVNHKPSNTKVDKKVEPKSCDKTHTCPPCPAPEAAGAPSVFLFPPKPKDTLMISRTPEVTCVVVDVSHEDPEVKFNWYVDGVEVHNAKTKPREEQYNSTYRVVSVLTVLHQDWLNGKEYKCKVSNKALPAPIEKTISKAKGQPREPQVCTLPPSREEMTKNQVSLWCLVKGFYPSDIAVEWESNGQPENNYKTTPPVLDSDGSFFLYSKLTVDKSRWQQGNVFSCSVMHEALHNHYTQKSLSLSPGK
light 1: B1 light 1 with E27Q, H31E, F32D, W34D, L36Y, V37M, H38N, R54A, W100P, D180K
light 2: B1 light 1
chain 2: B2 chain 2

What follows are binders tested against T1, human TSLP (long form) (human, UniProt Q969D9 29-159, Biotinylated on the Avi tag in some assays; glycosylated (Expi293F expression)) (assay: bridging sandwich ELISA: human TSLP coated, Tri-Fab-Fc titrated, IL-13-FLAG added, detected with HRP anti-FLAG (OD450nm)).
T1 construct: biotinylated in some assays; also called lfhTSLP; hTSLP
Experimental: For this method, 25 μL/well of 1 μg/mL recombinant human TSLP (in PBS pH7.2) was coated onto a 384-well clear flat bottom Maxisorp plates (NUNC) overnight at 4° C. and blocked with PBS without Mg²⁺ and Ca²⁺ with 3% BSA. Serially diluted Tri-Fab-Fc variants were added to the plates and incubated for 1 hour at room temperature (RT). After washing away the unbound Tri-Fab-Fc by washing with buffer (PBS without Mg²⁺ and Ca²⁺ with 0.05% tween 20), 25 μL/well of 100 ng/mL IL-13-FLAG (Pfizer Inc) was added to the plates and incubated at RT for one hour. The Tri-Fab-Fc bound to both TSLP and IL-13 was detected by HRP conjugated anti-FLAG secondary antibody (Sigma, Cat #A8592).

| EC50 (read off the curve) | Binder |
| --- | --- |
| ~0.6 nM | B1 |
| ~0.5 nM | B2 |
| ~0.6 nM | B3 |
